Measurements as given in patent US6994974B1, “Intracellular amyloid-beta binding (ERAB) polypeptide-related assays” (The trustees of Columbia University in the city of New York, priority 1997, dated 2006).

Biological target: T1, amyloid-beta peptide (1–42) (Homo sapiens, UniProt P05067)
T1 construct: the region encoding A4 (APP amino acids 653 to 694)
Test: Binding of ^125I-TrcHis-ERAB polypeptide to amyloid-beta peptide (1–42) adsorbed to microtiter wells
Settings: excess unlabelled protein
Protocol: FIGS. 2A, 2B, 2C, 2D, 2E, 2F, and 2G. […] FIG. 2A. SDS-PAGE (12%; reduced) followed by immunoblotting of TrcHis-ERAB polypeptide (FIG. 2A, lane 1; 2 μg) and TrcHis-chloramphenicol acetyltransferase (CAT; FIG. 2A, lane 2; 2 μg) fusion proteins using anti-ERAB polypeptide IgG (3 μg/ml). […] FIGS. 2B and 2C. […] Binding was analyzed by nonlinear least squares analysis using the method of Klotz and Hunston (60). FIG. 2E. […] FIGS. 2F and 2G. […] 0 indicates wells coated with albumin alone. […] Control TrcHis-CAT construct (Invitrogen) was also used to transform E. coli and the fusion protein was purified as above. Antibody to ERAB polypeptide was prepared by immunizing rabbits with ERAB polypeptide-derived peptides, corresponding to residues 100–116 and 133–147, conjugated to keyhole limpet hemocyanin. […] (for ERAB polypeptide) or overnight at 4° C. […] Unbound radioactivity was removed by washing wells five times with ice cold phosphate-buffered saline containing Tween 20 (0.05%), and bound radioactivity was eluted by incubation with Nonidet P-40 (1%).

B1: TrcHis-CAT: control fusion protein, TrcHis-chloramphenicol acetyltransferase (protein)
chain: MEKKITGYTTVDISQWHRKEHFEAFQSVAQCTYNQTVQLDITAFLKTVKKNKHKFYPAFIHILARLMNAHPEFRMAMKDGELVIWDSVHPCYTVFHEQTETFSSLWSEYHDDFRQFLHIYSQDVACYGENLAYFPKGFIENMFFVSANPWVSFTSFDLNVANMDNFFAPVFTMGKYYTQGDKVLMPLAIQVHHAVCDGFHVGRMLNELQQYCDEWQGGA
modifications: left off: small tags and cut ends
notes: control fusion protein, TrcHis-chloramphenicol acetyltransferase
Inhibition of ^125I-TrcHis-ERAB binding to adsorbed amyloid-beta peptide: did not inhibit
